Assays:
Type in all cases: cell-based, human
PC3 cells = test: Endocytosis capacity of murine monoclonal antibody (flow cytometry internalization); conditions: antibody 1.5 μg/mL
How it was run: (§1)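 MDA-MB-231 and PC3 cells (EDTA-detached, Fc-blocked) bound with 1.5 μg/mL test antibody at 4° C for 30 min, washed, then held at 37° C for 0.5, 1 or 2 h. Surface antibody detected with PE anti-human IgG Fc by flow cytometry; internalization (%) = (Geo-MFI 0 h − Geo-MFI at time point)/Geo-MFI 0 h × 100%.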

MDA-MB-231 cells [1] = test: as above; conditions: antibody 1.5 μg/mL
How it was run: as §1

MDA-MB-231 cells [2] = test: Transwell tumor cell migration experiment; conditions: MDA-MB-231, antibody 10 μg/ml
Protocol: In order to determine the effect of antibodies on tumor cell metastasis, the migration ability of tumor cells was examined in this study according to a transwell experiment. The specific cell migration experiment involved culturing and collecting MDA-MB-231 cells, washing them once with PBS, adjusting the density to 8×10^5 cells/mL, adding the antibody to be tested to the cells such that the working concentration thereof was 10 μg/ml, co-incubating for 30 mins, adding a cell suspension to the upper chamber of the transwell chamber, placing the transwell chamber in the incubator for 12-48 h, then removing the chamber (transwell chamber, to examine cell migration ability), immobilizing the cells, staining the cells with crystal violet for 15 mins, washing, air drying, mounting, and taking photos of 4-5 fields of view under a microscope, and counting the number or area of the stained cells using imageJ analysis software, the number or area was used as the basis for determining tumor cell migration.

PC-3 cells = test: Effect of antibody on tumor cell proliferation (CellTiter-Glo); conditions: PC-3, 96 h
Protocol: (§2) 3000 cells (breast cancer MDA-MB-231, prostate cancer PC-3 cells)/well were plated onto 96-well plates overnight, an antibody at a final concentration of 500 nM to 0.00128 nM (100 nM to 0.000256 nM, 100, 20, 4, 0.8, 0.16, 0.032, 0.0064, 0.00128, 0.000256 nM, respectively) was added; after a 5-fold dilution across 9 concentration points and culturing in a CO2 incubator at 37° C. for 96 h, half of the medium (100 μL) was discarded, and 100 μL of CellTiter-Glo Luminescent Cell Viability assay reagent (Promega, cat #G7570) was added to detect signal values on a BMG microplate reader. The inhibition of antibody on tumor cell growth was calculated by graphpad fitting based on the signal value and antibody concentration.

MDA-MB-231 cells [3] = test: as above; conditions: MDA-MB-231, 96 h
Protocol: as §2

MDA-MB-231 cells [4] = test: Endocytosis capacity of single B cell antibodies; conditions: MDA-MB-231, 2 h at 37° C., antibody 1.5 μg/mL
Protocol: The endocytosis capacity of the antibody was detected for 0.5 to 2 hours. MDA-MB-231 cells were subjected to digestion with 5 mM EDTA, and plated at 2×10^4 cells/well after cell counting. After adding an Fc blocker (Human TruStain FcX™, Biolegend, 422302) and blocking at room temperature for 10 mins, a test antibody (1.5 μg/mL) was added, and the mixture was incubated at 4° C. for 30 mins, centrifuged, and washed twice with PBS+2% FBS, then the cells were divided into four equal portions (labeled as 0 h, 0.5 h, 1 h, 2 h), cells labeled as 0.5 h, 1 h, 2 h time points were added to 200 μL of cell culture medium, and cultured at 37° C. for 0.5 h, 1 h, 2 h, respectively. Cells at 0 h point were centrifuged, a secondary antibody (PE anti-human IgG Fc Antibody, Biolegend, 410708) was added, and the mixture was incubated at 4° C. for 30 mins, centrifuged, and washed twice with PBS+2% FBS, and detection was performed using a flow cytometer. After incubation of cells labeled as 0.5 h, 1 h, and 2 h points at 37° C. was completed, a secondary antibody was added (in the same steps as those at 0 h point), Geo-MFI of the signal under the same voltage was collected as detection signal at 0 h, and antibody internalization rate was calculated according to the following equation: Internalization (%)=(Geo-MFI (0 h)-Geo-MFI (2 h))/Geo-MFI (0 h)×100%.

B1: 10D2: anti-CDCP1 murine monoclonal antibody (hybridoma); VH SEQ ID NO: 260, VL SEQ ID NO: 310 (antibody, V domains shown)
VH: EVQLQQSGPELKKPGETVKISCKASGYTFTDYSMHWVKQAPGKGLKWMGWINTETGQPTYADDFKGRFAFSLETSASSAYLQINNLKNEDTATYFCTRTFYYDYVGDYWGQGTTVTVSS
VL: DIVMTQSHKFMSTSVGDRVSITCKASQDVSTAVAWYRQKPGQSPKLLIYWASTRHTGVPDRLTGSGSGTDFALTINSVQAEDLALYYCQQHSSTPYTFGGGTKLEIK
modifications: 10D2 heavy chain variable region; 10D2 light chain variable region
Internalization PC3 (%) 0.5 h (PC3 cells; PC3, 0.5 h at 37° C.): 21.48% | Internalization PC3 (%) 1 h (PC3 cells; PC3, 1 h at 37° C.): 41.99% | Internalization PC3 (%) 2 h (PC3 cells; PC3, 2 h at 37° C.): 64.19% | Internalization MDA-MB-231 (%) 0.5 h (MDA-MB-231 cells [1]; MDA-MB-231, 0.5 h at 37° C.): 46.38% | Internalization MDA-MB-231 (%) 1 h (MDA-MB-231 cells [1]; MDA-MB-231, 1 h at 37° C.): 57.85% | Internalization MDA-MB-231 (%) 2 h (MDA-MB-231 cells [1]; MDA-MB-231, 2 h at 37° C.): 70.77% | effect on tumor cell migration (transwell, FIG. 4c) (MDA-MB-231 cells [2]): better capability to inhibit tumor cell migration than SEQ135 | effect on tumor cell growth (FIG. 4b) (PC-3 cells): did not exhibit an effect on tumor cell growth | effect on tumor cell growth (FIG. 4a) (MDA-MB-231 cells [3]): did not exhibit an effect on tumor cell growth

B2: SB4: anti-CDCP1 antibody by single B cell technique; VH SEQ ID NO: 274, VL SEQ ID NO: 324 (antibody, V domains shown)
VH: QVQLQQSGAELVRPGTSVKISCKASGYTFTNYWLGWVKQRPGHGLEWIGDNYPGDNYRNFNEKFKGKATLTTDASSSTAYLQLSSLISEDSAVYFCTRSGGSRYYTMDYWGQGTSVTVSS
VL: DIVMTQAAFSNPVTLGTSASISCRSSRSLLHNNGITYLYWYLQKPGQSPQLLIYQMSNLASGVPDRFHSSGSGTDFTLSISRVEAEDVGVYYCAQNLDLPYTFGGGTKLEIK
modifications: SB4 heavy chain variable region; SB4 light chain variable region
Internalization MDA-MB-231 (%) (MDA-MB-231 cells [4]): 83.16%

B3: SB5: anti-CDCP1 antibody by single B cell technique; VH SEQ ID NO: 275, VL SEQ ID NO: 325 (antibody, V domains shown)
VH: QVQLRESGPGLVAPSQSLSITCTVSGFSLTDFGVNWVRQPPGKGLEWLGIIWANGRIEYNSALKSRLSISKDNSRSQVFLKLNSLQTDDTARYYCARDHDYDVEAMDYWGQGTSVTVSA
VL: QIVLTQSPAIKSASPGEKVTMTCSASSSVIYMHWYQQKSGSSPKRWIYDTSKLASGVPVRFSGSGSGTSYSLTISTMEAEDAATYYCQQWSSYPPTFGGGTKVEIK
modifications: SB5 heavy chain variable region; SB5 light chain variable region
Internalization MDA-MB-231 (%) (MDA-MB-231 cells [4]): 15.63%

B4: SB6: anti-CDCP1 antibody by single B cell technique; VH SEQ ID NO: 276, VL SEQ ID NO: 326 (antibody, V domains shown)
VH: QGQMQQSGAELVKPGASVKLSCKTSGFTFNSSYITWLKQKPGQSLEWIAWIFAGTGGTYYNEKFTDKAQLTVDTTSSTAYMQFSSLTTEDSAIYYCARHGLGYDYWGQGTTLTVSS
VL: SIVMTQTPKFLLVSAGDRVTITCKASQSVNTDVAWYQQKSGQSPKLLIYSASNRYTGVPDRFTGSGYGTDFTFTISTVQAEDLAVYFCQQDHSSPPWTFGGGTKLEIK
modifications: SB6 heavy chain variable region; SB6 light chain variable region
Internalization MDA-MB-231 (%) (MDA-MB-231 cells [4]): 63.21%

B5: SB7: anti-CDCP1 antibody by single B cell technique; VH SEQ ID NO: 277, VL SEQ ID NO: 327 (antibody, V domains shown)
VH: QVQLQQSGPELVSPGESVKISCKGSGYTFTDYAVHWVKQSHSKSLEWIGVKSVYYGITKYSQNFKDKATMTVDKSSSTAYMELARLTSEDSAIYYCARDSYGSSRGYFDYWGQGTTLTVSS
VL: DIKMTQSPSSIYVSPGERVTITCKASQDINSFLSWFQQKPGKSPKTLIYRANRLVDGVPSRFSGSGSGQDYSLTISSLEYEDMGIYYCLQYDEFPRTFGGGTKLEIK
modifications: SB7 heavy chain variable region; SB7 light chain variable region
Internalization MDA-MB-231 (%) (MDA-MB-231 cells [4]): 31.67%

From patent US20260250410A1, “ANTIBODY AND USE THEREOF” (SICHUAN HUIYU PHARMACEUTICAL CO., LTD., priority 2022, published 2026)
